Like-named read-outs stand apart in the source and are kept apart here.
Assays:
[1] = biological target: mFc tagged human LAG3 ECD recombinant protein (human) (UniProt P18627); assay: competitive FACS: mFc tagged human LAG3 ECD binding to MHC II on Raji cells
[2] = biological target: mFc tagged human LAG3 ECD recombinant protein (human) (UniProt P18627); assay: as above; remark: listed apart in the source
[3] = biological target: mFc tagged human LAG3 ECD recombinant protein (human) (UniProt P18627); assay: competitive ELISA: mFc tagged human LAG3 ECD binding to plate coated LSECtin ECD

Sequence of mFc tagged human LAG3 ECD recombinant protein (human) (P18627 23-450): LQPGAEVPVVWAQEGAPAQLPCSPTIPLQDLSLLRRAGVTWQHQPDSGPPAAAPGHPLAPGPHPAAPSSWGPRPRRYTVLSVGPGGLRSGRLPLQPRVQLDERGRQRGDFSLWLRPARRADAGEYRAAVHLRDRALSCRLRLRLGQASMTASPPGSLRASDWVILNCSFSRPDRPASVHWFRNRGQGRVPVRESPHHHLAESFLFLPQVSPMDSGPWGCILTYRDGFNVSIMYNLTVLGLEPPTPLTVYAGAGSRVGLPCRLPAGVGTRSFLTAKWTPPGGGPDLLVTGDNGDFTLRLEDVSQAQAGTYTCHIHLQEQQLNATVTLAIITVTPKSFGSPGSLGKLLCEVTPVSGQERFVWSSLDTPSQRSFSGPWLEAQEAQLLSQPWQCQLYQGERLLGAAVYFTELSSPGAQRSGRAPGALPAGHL

## hIgG4 (antibody)
[1]
  %Blocking at 2 nM: 5.7%
  %Blocking at 8 nM: 3.4%
[2]
  %Blocking at 8 nM: 10.9%
[3]
  %Blocking at 4 nM: 1.3%
  %Blocking at 20 nM: 5.6%
  %Blocking at 100 nM: 7.4%

Source: patent US20250313625A1
